Experimental data as given in patent US20140223606, “COMPOSITIONS AND METHODS COMPRISING SEQUENCES HAVING MEGANUCLEASE ACTIVITY” (PIONEER HI BRED INTERNATIONAL INC, published 2014).

Legend:
Settings in all cases: tags: NLS, 6xHis
MHP14(13) = target: T1, MHP14(13) (artificial); test: cell_activity; yeast 37 C; 28 C: 1
T1 chain: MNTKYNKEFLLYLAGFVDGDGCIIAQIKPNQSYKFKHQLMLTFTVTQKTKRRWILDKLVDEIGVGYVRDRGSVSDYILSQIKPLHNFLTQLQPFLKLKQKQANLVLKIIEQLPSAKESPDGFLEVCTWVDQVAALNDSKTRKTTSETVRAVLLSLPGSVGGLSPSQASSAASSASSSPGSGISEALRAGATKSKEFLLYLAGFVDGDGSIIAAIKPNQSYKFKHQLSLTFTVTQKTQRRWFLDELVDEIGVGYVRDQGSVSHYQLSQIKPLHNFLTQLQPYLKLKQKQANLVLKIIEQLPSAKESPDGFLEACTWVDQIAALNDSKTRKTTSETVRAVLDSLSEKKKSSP
Method: (§1) A 3 mL culture of selective media (MP Biomedical) was inoculated with a single colony of the yeast screening strain and grown at 30° C. overnight. On the following day, a 50 ml YPD culture (MP Biomedical) was started with 2 ml of the overnight culture and grown at 30° C. overnight. On the following day, the cells were harvested by centrifugation at 4000 rpm. The cells were resuspended in 100 ml ice cold water and centrifuged again. The cells were then washed in 1.2 M sorbitol, followed by treatment with 2 ml of 10 mM Tris pH 8.0, 1 mM EDTA, 100 mM Lithium acetate, 10 mM DTT, 0.6M sorbitol for 30 minutes at 30° C. with shaking. The cells were recovered by centrifugation, washed in 40 ml 1.2M sorbitol and finally resuspended in 250 microliters of 1.2M sorbitol. 50 microliter aliquots were transferred to test tubes on ice. Up to 5 microliters of DNA (100-500 nanograms) were added. The suspension was transferred to a 0.2 cm electroporation cuvette, on ice. Electroporation was performed with a pulse charge at 1.5 kV, 200 ohms, 25 microF (pulse time of 5 milliseconds). 1 mL YPD media (MP Biomedical) was added and the cells were allowed to recover at 30° C. for 1-2 hr. The cells were centrifuged, resuspended in 100 uL 1M sorbitol and plated on selective media lacking leucine and containing 2% galactose. The resulting yeast colonies were incubated at various temperatures ranging from 22 to 37 degrees Celsius for 7-10 days. I-CreI and meganucleases derived from it have maximal activity at or above 37 degrees Celsius. Screening was performed at a range of temperatures from 22 to 37 degrees in order to observe increases in activity at lower temperatures which are relevant to certain biological systems (eg. plant cells, plant cell cultures, etc). At that time the red/white sectoring phenotype, indicative of meganuclease activity was observed. Colonies with increased white sectoring over the parental meganuclease (indicating colonies expressing a meganuclease with increased meganuclease activity), also referred to as “hits” and sometimes completely white, were isolated for further analysis. […]

MHP14(08) = target: T2, MHP14(08) (artificial); test: cell_activity; yeast 37 C; 28 C: 1
T2 chain: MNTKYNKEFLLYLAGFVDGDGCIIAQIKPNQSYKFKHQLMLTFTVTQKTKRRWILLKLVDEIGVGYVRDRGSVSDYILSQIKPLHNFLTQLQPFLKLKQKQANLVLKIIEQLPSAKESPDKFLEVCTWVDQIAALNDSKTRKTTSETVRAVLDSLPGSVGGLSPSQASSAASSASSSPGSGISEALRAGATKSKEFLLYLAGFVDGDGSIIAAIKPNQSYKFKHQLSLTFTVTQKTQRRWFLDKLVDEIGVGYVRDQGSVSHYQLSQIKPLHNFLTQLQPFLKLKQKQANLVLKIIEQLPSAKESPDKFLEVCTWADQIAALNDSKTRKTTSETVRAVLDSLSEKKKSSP
Method: as §1

ZM6.3(G3) = target: T3, ZM6.3(G3) (artificial); test: cell_activity; yeast 37 C; 28 C: 2
T3 chain: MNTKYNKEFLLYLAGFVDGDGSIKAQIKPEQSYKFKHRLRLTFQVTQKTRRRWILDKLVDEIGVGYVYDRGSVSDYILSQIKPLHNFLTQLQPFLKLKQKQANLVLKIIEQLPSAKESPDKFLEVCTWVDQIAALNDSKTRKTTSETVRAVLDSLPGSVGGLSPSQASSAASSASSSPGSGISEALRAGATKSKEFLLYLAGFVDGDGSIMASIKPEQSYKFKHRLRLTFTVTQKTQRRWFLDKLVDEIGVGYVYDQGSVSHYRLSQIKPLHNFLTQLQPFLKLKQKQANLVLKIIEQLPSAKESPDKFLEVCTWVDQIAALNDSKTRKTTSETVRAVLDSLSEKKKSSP
Method: (§2) A 3 mL culture of selective media (MP Biomedical) was inoculated with a single colony of the yeast screening strain and grown at 30° C. overnight. On the following day, a 50 ml YPD culture (MP Biomedical) was started with 2 ml of the overnight culture and grown at 30° C. overnight. On the following day, the cells were harvested by centrifugation at 4000 rpm. The cells were resuspended in 100 ml ice cold water and centrifuged again. The cells were then washed in 1.2 M sorbitol, followed by treatment with 2 ml of 10 mM Tris pH 8.0, 1 mM EDTA, 100 mM Lithium acetate, 10 mM DTT, 0.6M sorbitol for 30 minutes at 30° C. with shaking. The cells were recovered by centrifugation, washed in 40 ml 1.2M sorbitol and finally resuspended in 250 microliters of 1.2M sorbitol. 50 microliter aliquots were transferred to test tubes on ice. Up to 5 microliters of DNA (100-500 nanograms) were added. The suspension was transferred to a 0.2 cm electroporation cuvette, on ice. Electroporation was performed with a pulse charge at 1.5 kV, 200 ohms, 25 microF (pulse time of 5 milliseconds). 1 mL YPD media (MP Biomedical) was added and the cells were allowed to recover at 30° C. for 1-2 hr. The cells were centrifuged, resuspended in 100 uL 1M sorbitol and plated on selective media lacking leucine and containing 2% galactose. The resulting yeast colonies were incubated at various temperatures ranging from 22 to 37 degrees Celsius for 7-10 days. I-CreI and meganucleases derived from it have maximal activity at or above 37 degrees Celsius. Screening was performed at a range of temperatures from 22 to 37 degrees in order to observe increases in activity at lower temperatures which are relevant to certain biological systems (eg. plant cells, plant cell cultures, etc). At that time the red/white sectoring phenotype, indicative of meganuclease activity was observed. Colonies with increased white sectoring over the parental meganuclease (indicating colonies expressing a meganuclease with increased meganuclease activity), also referred to as “hits” and sometimes completely white, were isolated for further analysis.
(§3) A total of 15 Zm6.3 variants with increased activity were confirmed in the yeast system (as described in Example 6). Increased activity was observed across a range of temperatures: 28 degrees Celsius, 30 degrees Celsius and 37 degrees Celsius, as shown in Table 15.

ZM6.3(H3) = target: T4, ZM6.3(H3) (artificial); test: cell_activity; yeast 37 C; 28 C: 2
T4 chain: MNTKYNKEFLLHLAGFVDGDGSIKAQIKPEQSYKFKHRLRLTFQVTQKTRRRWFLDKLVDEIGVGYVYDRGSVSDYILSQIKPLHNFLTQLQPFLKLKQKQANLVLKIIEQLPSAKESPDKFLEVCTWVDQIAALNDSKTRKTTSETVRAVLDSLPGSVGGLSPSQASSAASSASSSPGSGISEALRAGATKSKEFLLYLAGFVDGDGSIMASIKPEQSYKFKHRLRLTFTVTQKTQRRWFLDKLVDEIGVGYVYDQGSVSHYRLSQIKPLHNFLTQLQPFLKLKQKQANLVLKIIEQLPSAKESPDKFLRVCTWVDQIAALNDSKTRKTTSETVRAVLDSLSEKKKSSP
Method: as §2, §3

ZM6.3(G4) = target: T5, ZM6.3(G4) (artificial); test: cell_activity; yeast 37 C; 28 C: 2
T5 chain: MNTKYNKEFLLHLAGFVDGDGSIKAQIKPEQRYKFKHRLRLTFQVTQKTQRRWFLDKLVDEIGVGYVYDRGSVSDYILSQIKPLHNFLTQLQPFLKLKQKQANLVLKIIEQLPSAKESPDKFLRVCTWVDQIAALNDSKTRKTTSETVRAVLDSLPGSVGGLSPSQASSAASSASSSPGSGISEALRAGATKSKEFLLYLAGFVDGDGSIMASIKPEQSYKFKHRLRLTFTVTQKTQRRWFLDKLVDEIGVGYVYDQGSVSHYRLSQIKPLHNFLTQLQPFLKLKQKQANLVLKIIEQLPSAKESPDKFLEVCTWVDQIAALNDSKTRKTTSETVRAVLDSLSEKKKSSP
Method: as §2, §3

Row | Binder | activity (MHP14(13)) [score 0-4] | activity (MHP14(08)) [score 0-4] | activity (ZM6.3(G3)) [score 0-4] | activity (ZM6.3(H3)) [score 0-4] | activity (ZM6.3(G4)) [score 0-4]
1 | MHP14 recognition site (dsDNA) DNA 1: CAAACAGATTCACGTCAGATTT DNA 2: AAATCTGACGTGAATCTGTTTG | 3.5 | 4 |  |  | 
2 | ZM6.3 recognition site (dsDNA) DNA 1: CAGGCTCTCGTAAATGCGCCTG DNA 2: CAGGCGCATTTACGAGAGCCTG |  |  | 4 | 4 | 4
